Laboratory results: patent US20110135647

System: T1, pp1-18 peptide (cell-permeable peptide, RRRRRRRRRRR-G-MEGISNFKTPSKLSEKKK)
T1 sequence: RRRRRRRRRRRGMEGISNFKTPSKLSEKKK

CDK1-cyclin B1 recombinant protein complex (New England Biolabs)
phosphorylation of recombinant PBK/TOPK by CDK1-cyclin B1 (in vitro kinase assay with peptide added): the phosphorylation of recombinant PBK/TOPK protein by CDK1-cyclin B1 recombinant proteins was diminished in dose-dependent manner by addition of the pp 1-18 peptide
